Results as given in IntAct's records for PubMed 29892012.

How the values were obtained:
[1] = biological target: T1, zbt14_human ZBTB14 (UniProt O43829)
T1 sequence: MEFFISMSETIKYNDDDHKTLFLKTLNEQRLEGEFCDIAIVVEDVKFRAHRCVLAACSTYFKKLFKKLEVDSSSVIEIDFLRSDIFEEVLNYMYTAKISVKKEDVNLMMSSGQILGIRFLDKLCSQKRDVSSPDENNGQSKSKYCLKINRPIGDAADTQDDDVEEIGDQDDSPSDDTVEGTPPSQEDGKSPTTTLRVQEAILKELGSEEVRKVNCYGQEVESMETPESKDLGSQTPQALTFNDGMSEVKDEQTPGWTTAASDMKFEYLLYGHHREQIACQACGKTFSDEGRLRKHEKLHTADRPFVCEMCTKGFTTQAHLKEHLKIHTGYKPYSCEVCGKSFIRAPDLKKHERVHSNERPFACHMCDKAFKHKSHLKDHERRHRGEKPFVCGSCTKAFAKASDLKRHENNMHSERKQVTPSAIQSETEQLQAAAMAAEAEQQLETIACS

[2] = biological target: T2, lonf1_human LONRF1 (UniProt Q17RB8)
T2 sequence: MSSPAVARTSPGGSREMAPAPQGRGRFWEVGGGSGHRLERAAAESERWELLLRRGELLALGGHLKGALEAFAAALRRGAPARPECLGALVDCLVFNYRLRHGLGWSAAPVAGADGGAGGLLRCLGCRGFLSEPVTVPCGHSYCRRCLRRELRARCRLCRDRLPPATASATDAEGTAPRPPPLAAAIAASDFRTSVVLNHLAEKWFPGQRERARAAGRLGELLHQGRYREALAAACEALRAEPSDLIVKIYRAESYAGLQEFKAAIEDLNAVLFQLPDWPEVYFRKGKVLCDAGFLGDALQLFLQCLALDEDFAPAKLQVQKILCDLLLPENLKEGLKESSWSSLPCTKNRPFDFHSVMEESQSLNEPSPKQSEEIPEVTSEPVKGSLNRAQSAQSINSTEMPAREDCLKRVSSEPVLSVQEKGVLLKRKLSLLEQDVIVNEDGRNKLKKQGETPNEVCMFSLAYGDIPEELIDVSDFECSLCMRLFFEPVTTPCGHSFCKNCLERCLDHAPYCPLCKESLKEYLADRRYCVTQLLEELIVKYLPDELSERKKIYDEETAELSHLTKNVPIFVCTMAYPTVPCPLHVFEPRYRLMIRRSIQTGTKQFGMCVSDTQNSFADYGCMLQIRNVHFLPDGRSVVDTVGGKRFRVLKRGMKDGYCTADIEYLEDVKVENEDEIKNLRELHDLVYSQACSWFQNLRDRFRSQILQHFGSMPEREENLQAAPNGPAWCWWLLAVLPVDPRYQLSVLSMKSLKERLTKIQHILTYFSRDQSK

[3] = biological target: T3, goga2_human GOLGA2 (UniProt Q08379)
T3 sequence: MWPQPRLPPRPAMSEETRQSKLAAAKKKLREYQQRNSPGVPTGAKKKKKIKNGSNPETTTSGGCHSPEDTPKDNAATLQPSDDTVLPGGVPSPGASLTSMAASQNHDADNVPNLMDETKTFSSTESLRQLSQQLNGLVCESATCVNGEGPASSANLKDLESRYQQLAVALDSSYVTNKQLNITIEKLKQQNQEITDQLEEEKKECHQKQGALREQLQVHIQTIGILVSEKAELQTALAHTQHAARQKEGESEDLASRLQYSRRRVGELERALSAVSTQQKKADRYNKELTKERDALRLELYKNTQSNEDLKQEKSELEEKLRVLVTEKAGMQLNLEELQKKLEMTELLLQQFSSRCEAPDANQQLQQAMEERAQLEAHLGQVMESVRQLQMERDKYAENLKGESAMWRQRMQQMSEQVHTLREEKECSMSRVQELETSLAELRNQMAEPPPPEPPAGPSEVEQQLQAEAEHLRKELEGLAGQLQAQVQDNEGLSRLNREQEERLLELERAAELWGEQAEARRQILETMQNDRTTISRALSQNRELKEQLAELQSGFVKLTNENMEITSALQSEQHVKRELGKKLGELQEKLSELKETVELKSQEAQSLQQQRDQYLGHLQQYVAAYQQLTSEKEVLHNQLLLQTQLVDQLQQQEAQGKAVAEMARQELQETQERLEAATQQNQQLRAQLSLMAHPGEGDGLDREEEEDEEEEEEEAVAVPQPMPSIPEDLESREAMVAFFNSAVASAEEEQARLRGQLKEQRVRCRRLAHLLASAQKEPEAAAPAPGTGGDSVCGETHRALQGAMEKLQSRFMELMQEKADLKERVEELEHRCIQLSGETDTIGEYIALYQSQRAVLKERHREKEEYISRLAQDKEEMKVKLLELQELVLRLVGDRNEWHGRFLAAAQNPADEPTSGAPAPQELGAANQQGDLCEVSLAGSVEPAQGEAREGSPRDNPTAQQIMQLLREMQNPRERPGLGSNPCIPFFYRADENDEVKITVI

[4] = biological target: T4, traf2_human TRAF2 (UniProt Q12933)
T4 sequence: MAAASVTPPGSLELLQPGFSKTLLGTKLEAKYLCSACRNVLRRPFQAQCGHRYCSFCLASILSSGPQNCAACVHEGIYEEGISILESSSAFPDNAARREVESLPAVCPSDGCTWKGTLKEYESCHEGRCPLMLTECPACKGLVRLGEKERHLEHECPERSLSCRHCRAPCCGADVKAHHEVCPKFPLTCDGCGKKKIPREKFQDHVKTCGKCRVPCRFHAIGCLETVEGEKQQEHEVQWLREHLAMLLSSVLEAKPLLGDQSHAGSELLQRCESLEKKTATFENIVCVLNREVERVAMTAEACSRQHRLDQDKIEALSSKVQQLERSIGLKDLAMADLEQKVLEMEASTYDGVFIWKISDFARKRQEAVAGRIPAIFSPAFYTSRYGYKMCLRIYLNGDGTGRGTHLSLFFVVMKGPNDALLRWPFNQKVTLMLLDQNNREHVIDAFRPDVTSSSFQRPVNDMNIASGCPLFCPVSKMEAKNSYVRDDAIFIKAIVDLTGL

[5] = biological target: T5, prdx3_human PRDX3 (UniProt P30048)
T5 sequence: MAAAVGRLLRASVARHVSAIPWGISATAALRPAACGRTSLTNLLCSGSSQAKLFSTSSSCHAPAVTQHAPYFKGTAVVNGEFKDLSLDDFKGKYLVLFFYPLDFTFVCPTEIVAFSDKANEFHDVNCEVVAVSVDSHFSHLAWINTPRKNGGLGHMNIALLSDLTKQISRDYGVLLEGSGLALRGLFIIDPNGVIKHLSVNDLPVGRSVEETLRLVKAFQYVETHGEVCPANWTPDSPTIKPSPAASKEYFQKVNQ

[6] = biological target: itf2_human TCF4 (UniProt P15884)
itf2_human TCF4, sequence (P15884 whole entry): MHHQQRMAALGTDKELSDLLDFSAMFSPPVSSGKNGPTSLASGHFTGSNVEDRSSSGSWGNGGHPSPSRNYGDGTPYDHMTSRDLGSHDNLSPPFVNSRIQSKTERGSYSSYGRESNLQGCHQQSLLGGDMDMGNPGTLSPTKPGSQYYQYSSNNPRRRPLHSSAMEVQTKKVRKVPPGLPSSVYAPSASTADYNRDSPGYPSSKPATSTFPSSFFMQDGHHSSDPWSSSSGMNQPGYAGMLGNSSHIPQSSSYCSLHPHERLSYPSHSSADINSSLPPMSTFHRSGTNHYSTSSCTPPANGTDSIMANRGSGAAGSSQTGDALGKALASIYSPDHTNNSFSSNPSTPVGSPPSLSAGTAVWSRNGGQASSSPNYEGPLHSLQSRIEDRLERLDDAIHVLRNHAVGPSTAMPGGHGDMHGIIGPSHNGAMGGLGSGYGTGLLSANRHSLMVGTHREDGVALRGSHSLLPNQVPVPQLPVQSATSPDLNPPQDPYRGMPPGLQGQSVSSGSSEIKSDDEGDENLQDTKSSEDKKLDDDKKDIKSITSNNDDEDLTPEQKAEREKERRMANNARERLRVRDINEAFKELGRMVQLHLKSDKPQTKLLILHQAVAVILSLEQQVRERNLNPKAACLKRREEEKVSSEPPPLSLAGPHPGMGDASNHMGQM

Substance: Golgi reassembly-stacking protein 2 (Homo sapiens) (from UniProt Q9H8Y8) L320R
- effect of a mutation on the interaction [1]: with no effect
- effect of a mutation on the interaction [2]: with no effect
- effect of a mutation on the interaction [3]: with no effect
- effect of a mutation on the interaction [4]: with no effect
- effect of a mutation on the interaction [5]: disrupting interaction strength
- effect of a mutation on the interaction [6]: with no effect
